Tests used:
[1] = test system: CC(C)(O/N=C(\C(=O)N[C@@H]1C(=O)N2C(C(=O)[O-])=C(C[n+]3ccccc3)CS[C@H]12)c1csc(N)n1)C(=O)O; test: purified protein; conditions: 50 mM morpholinepropanesulfonic acid pH 7.0, 50 mM NaCl, 100 mM sodium phosphate pH 7.0, 30°C
[2] = test system: CC(C)(O/N=C(\C(=O)N[C@@H]1C(=O)N2C(C(=O)[O-])=C(C[n+]3ccccc3)CS[C@H]12)c1csc(N)n1)C(=O)O; test: purified protein; type: biochemical, Klebsiella pneumoniae; conditions: 50 mM morpholinepropanesulfonic acid pH 7.0, 50 mM NaCl, 100 mM sodium phosphate pH 7.0, 30°C

## KPC-2 (and its variant KPC-55 = KPC-2 Y264N) (Klebsiella pneumoniae; Y262N)
[1]
  Km: 0.40 ± 0.11 µM
  kcat: 0.2 s⁻¹
  kcat/Km: 450000 M⁻¹ s⁻¹

## KPC-2 (and its variant KPC-55 = KPC-2 Y264N) (Klebsiella pneumoniae)
[2]
  Km: 0.28 ± 0.09 µM
  kcat: 0.02 ± 0.003 s⁻¹
  kcat/Km: 70000 ± 20000 M⁻¹ s⁻¹

Source: article PMC7579404, “A Novel KPC Variant KPC-55 in Klebsiella pneumoniae ST307 of Reinforced Meropenem-Hydrolyzing Activity” (Frontiers in Microbiology, 2020)
